The source of these data is patent publication US11395853B2, “Biomimetic drug delivery of an immunomodulatory agent for the treatment of ocular conditions” (University of Pittsburgh-Of the Commonwealth System of …, priority 2016, dated 2022).

In assay [1] the test system is ConA-induced DED mice. Nature of the assay: Aqueous tear production, phenol red cotton thread, ConA-induced DED (Example 1). Type of assay: in vivo, Balb/c mice. Conditions: one week after ConA into lacrimal gland; MPs 0.5 mg/20 μl co-injected with ConA; soluble CCL22 2.5 μg in 20 μl; anti-GITR 500 μg i.p. 5 days prior. As for the experimental part: (§1) Fabrication of Microparticles—Poly (lactic-co-glycolic) acid (PLGA) microparticles encapsulating recombinant mouse CCL22 (R&D Systems, Minneapolis Minn.) were made according to a previously reported water-oil-water double emulsion technique. Glowacki, A. J. et al. Proc. Natl. Acad. Sci. U.S.A 110, 18525-30 (2013). Briefly, 200 mg of RG502H poly(D,L-lactide-co-glycolide) polymer (Sigma Aldrich, St. Louis, Mo.) was dissolved in 4 ml of dichloromethane and vortexed. Then […], of an aqueous solution containing 5 μg of recombinant mouse CCL22 and 2 mg of BSA (Sigma Aldrich, St. Louis, Mo.) with […] NaCl was pipetted into the mixture of polymer and dichloromethane. […] Release media (supernatant) was sampled periodically and CCL22 concentrations were quantified using an enzyme-linked immunosorbent assay (ELISA) (R&D Systems, Minneapolis, Minn.). […] Measurement of Tear Production—Aqueous tear production was measured with phenol red cotton threads (Oasis Medical, San Dimas, Calif.). Thread was placed in the lateral canthus of the eye for a period of 60 seconds, and wetting was measured in millimeters using a dissecting microscope (Olympus SZX10, Waltham, Mass.). […] The surface of the cornea was evaluated using a dissecting microscope with a fluorescent excitation lamp (Olympus SZX10, Waltham, Mass.). […]

In assay [2] the test system is ConA-induced DED mice. Nature of the assay: Corneal permeability, corneal fluorescein staining score, ConA-induced DED (Example 1). Format: in vivo, Balb/c mice. Conditions: one week after ConA into lacrimal gland; MPs or soluble CCL22 co-injected with ConA; anti-GITR 500 μg i.p. 5 days prior. As for the experimental part:
as §1

B1: Soluble CCL22: recombinant mouse CCL22 chemokine injected in solution with ConA at 2.5 μg in 20 μl (protein, UniProt O88430 25-92, looked up)
C-C motif chemokine 22: GPYGANVEDSICCQDYIRHPLPSRLVKEFFWTSKSCRKPGVVLITVKNRDICADPRQVWVKKLLHKLS
Regarding B1, the aqueous tear production result with ConA-induced DED mice [1] is “unable to prevent loss of tear production”. Further, the “corneal fluorescein staining (corneal permeability)” value with ConA-induced DED mice [2] is on record as “central punctate fluorescein staining was observed”.
